Results reported in the supplement of paper PMC10567573.

B1: RSPH3 (parent)
chain: MTVKPAKAASLARNLAKRRRTYLG
B2: TRIM35 (parent)
chain: DKELLCCSCQADPRHQGHRVQPVK

Variants of: B1
Test: protein stability index of a GFP-peptide fusion (GPS, HEK-293T) (PSI 1-6); higher = more stable
Conditions: c terminus: a fixed tail appended
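Note: lentivirally expressed fusions sorted by FACS into six bins by GFP to DsRed ratio, PSI derived from sequencing read proportions per bin multiplied by bin number.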

Variant	protein stability index
DTVKPAKAASLARNLAKRRRTYLG [M1D]	2.85
ATVKPAKAASLARNLAKRRRTYLG [M1A]	3.34
NTVKPAKAASLARNLAKRRRTYLG [M1N]	3.88
ITVKPAKAASLARNLAKRRRTYLG [M1I]	2.15
FTVKPAKAASLARNLAKRRRTYLG [M1F]	2.35
KTVKPAKAASLARNLAKRRRTYLG [M1K]	2.33
GTVKPAKAASLARNLAKRRRTYLG [M1G]	3.28
STVKPAKAASLARNLAKRRRTYLG [M1S]	3.02
HTVKPAKAASLARNLAKRRRTYLG [M1H]	3.45
PTVKPAKAASLARNLAKRRRTYLG [M1P]	3
QTVKPAKAASLARNLAKRRRTYLG [M1Q]	3.95
WTVKPAKAASLARNLAKRRRTYLG [M1W]	2.31
CTVKPAKAASLARNLAKRRRTYLG [M1C]	2.71
ETVKPAKAASLARNLAKRRRTYLG [M1E]	2.46
LTVKPAKAASLARNLAKRRRTYLG [M1L]	3.36
YTVKPAKAASLARNLAKRRRTYLG [M1Y]	2.55
MQVKPAKAASLARNLAKRRRTYLG [T2Q]	2.61
MGVKPAKAASLARNLAKRRRTYLG [T2G]	3.28
MDVKPAKAASLARNLAKRRRTYLG [T2D]	2.88
MEVKPAKAASLARNLAKRRRTYLG [T2E]	2.98
MMVKPAKAASLARNLAKRRRTYLG [T2M]	2.34
MFVKPAKAASLARNLAKRRRTYLG [T2F]	1.95

Variant	protein stability index
MKVKPAKAASLARNLAKRRRTYLG [T2K]	2.81
MCVKPAKAASLARNLAKRRRTYLG [T2C]	2.16
MHVKPAKAASLARNLAKRRRTYLG [T2H]	3.44
MNVKPAKAASLARNLAKRRRTYLG [T2N]	3.75
MVVKPAKAASLARNLAKRRRTYLG [T2V]	2.5
MIVKPAKAASLARNLAKRRRTYLG [T2I]	2.45
MSVKPAKAASLARNLAKRRRTYLG [T2S]	2.96
MLVKPAKAASLARNLAKRRRTYLG [T2L]	2.17
MPVKPAKAASLARNLAKRRRTYLG [T2P]	3.41
MRVKPAKAASLARNLAKRRRTYLG [T2R]	2.74
MWVKPAKAASLARNLAKRRRTYLG [T2W]	1.58
MAVKPAKAASLARNLAKRRRTYLG [T2A]	2.69
MYVKPAKAASLARNLAKRRRTYLG [T2Y]	2.36
MTVKEAKAASLARNLAKRRRTYLG [P5E]	2.52
MTVKIAKAASLARNLAKRRRTYLG [P5I]	1.73
MTVKHAKAASLARNLAKRRRTYLG [P5H]	2.91
MTVKNAKAASLARNLAKRRRTYLG [P5N]	3.24
MTVKYAKAASLARNLAKRRRTYLG [P5Y]	2.14
MTVKSAKAASLARNLAKRRRTYLG [P5S]	2.56
MTVKKAKAASLARNLAKRRRTYLG [P5K]	2.92
MTVKWAKAASLARNLAKRRRTYLG [P5W]	2.48
MTVKAAKAASLARNLAKRRRTYLG [P5A]	2.93

Variant	protein stability index
MTVKVAKAASLARNLAKRRRTYLG [P5V]	2.69
MTVKDAKAASLARNLAKRRRTYLG [P5D]	3.8
MTVKGAKAASLARNLAKRRRTYLG [P5G]	2.75
MTVKTAKAASLARNLAKRRRTYLG [P5T]	3.29
MTVKRAKAASLARNLAKRRRTYLG [P5R]	2.48
MTVKQAKAASLARNLAKRRRTYLG [P5Q]	2.63
MTVKCAKAASLARNLAKRRRTYLG [P5C]	2.05
MTVKMAKAASLARNLAKRRRTYLG [P5M]	2.92
MTVKFAKAASLARNLAKRRRTYLG [P5F]	1.52
MTVKLAKAASLARNLAKRRRTYLG [P5L]	3.36
MTVIPAKAASLARNLAKRRRTYLG [K4I]	1.87
MTVDPAKAASLARNLAKRRRTYLG [K4D]	2.97
MTVPPAKAASLARNLAKRRRTYLG [K4P]	2.94
MTVSPAKAASLARNLAKRRRTYLG [K4S]	3.36
MTVEPAKAASLARNLAKRRRTYLG [K4E]	2.1
MTVQPAKAASLARNLAKRRRTYLG [K4Q]	3.95
MTVHPAKAASLARNLAKRRRTYLG [K4H]	3.7
MTVLPAKAASLARNLAKRRRTYLG [K4L]	2.13
MTVFPAKAASLARNLAKRRRTYLG [K4F]	2.34
MTVWPAKAASLARNLAKRRRTYLG [K4W]	2.25
MTVTPAKAASLARNLAKRRRTYLG [K4T]	3.38
MTVVPAKAASLARNLAKRRRTYLG [K4V]	2.6

Variant	protein stability index
MTVYPAKAASLARNLAKRRRTYLG [K4Y]	2.58
MTVMPAKAASLARNLAKRRRTYLG [K4M]	3.46
MTVCPAKAASLARNLAKRRRTYLG [K4C]	2.8
MTVNPAKAASLARNLAKRRRTYLG [K4N]	2.69
MTVAPAKAASLARNLAKRRRTYLG [K4A]	2
MTMKPAKAASLARNLAKRRRTYLG [V3M]	2.31
MTSKPAKAASLARNLAKRRRTYLG [V3S]	2.62
MTHKPAKAASLARNLAKRRRTYLG [V3H]	3.23
MTIKPAKAASLARNLAKRRRTYLG [V3I]	3.59
MTAKPAKAASLARNLAKRRRTYLG [V3A]	2.85
MTEKPAKAASLARNLAKRRRTYLG [V3E]	3.22
MTTKPAKAASLARNLAKRRRTYLG [V3T]	3.5
MTYKPAKAASLARNLAKRRRTYLG [V3Y]	2.68
MTDKPAKAASLARNLAKRRRTYLG [V3D]	3.02
MTLKPAKAASLARNLAKRRRTYLG [V3L]	2.75
MTNKPAKAASLARNLAKRRRTYLG [V3N]	3.22
MTCKPAKAASLARNLAKRRRTYLG [V3C]	3.73
MTRKPAKAASLARNLAKRRRTYLG [V3R]	2.98
MTKKPAKAASLARNLAKRRRTYLG [V3K]	3.29
MTFKPAKAASLARNLAKRRRTYLG [V3F]	3.79

Variants of: B2
Test: as above
Conditions: c terminus: a fixed tail appended

Variant	protein stability index
DKELLCCSCQADPRHQGHLVQPVK [R19L]	3.52
DKELLCCSCQADPRHQGHKVQPVK [R19K]	3.56
DKELLCCSCQADPRHQGHVVQPVK [R19V]	3.84
DKELLCCSCQADPRHQGHMVQPVK [R19M]	3.71
DKELLCCSCQADPRHQGHIVQPVK [R19I]	3.19
DKELLCCSCQADPRHQGHSVQPVK [R19S]	3.73
DKELLCCSCQADPRHQGHWVQPVK [R19W]	2.78
DKELLCCSCQADPRHQGHQVQPVK [R19Q]	3.67
DKELLCCSCQADPRHQGHPVQPVK [R19P]	3.73
DKELLCCSCQADPRHQGHNVQPVK [R19N]	3.73
DKELLCCSCQADPRHQGHTVQPVK [R19T]	3.01
DKELLCCSCQADPRHQGHYVQPVK [R19Y]	3.16
DKELLCCSCQADPRHQGHRVQPVW [K24W]	2.53
DKELLCCSCQADPRHQGHRVQPVC [K24C]	3.18
DKELLCCSCQADPRHQGHRVQPVT [K24T]	3.31
DKELLCCSCQADPRHQGHRVQPVS [K24S]	3.52
DKELLCCSCQADPRHQGHRVQPVQ [K24Q]	3.77
DKELLCCSCQADPRHQGHRVQPVP [K24P]	3.46
DKELLCCSCQADPRHQGHRVQPVL [K24L]	2.65
DKELLCCSCQADPRHQGHRVQPVN [K24N]	3.04
DKELLCCSCQADPRHQGHRVQPVE [K24E]	3.81
DKELLCCSCQADPRHQGHRVQPVD [K24D]	4.05
DKELLCCSCQADPRHQGHRVQPVR [K24R]	2.82
DKELLCCSCQADPRHQGHRVQPVI [K24I]	2.73
DKELLCCSCQADPRHQGHRVQPVY [K24Y]	2.79
DKELLCCSCQADPRHQGHRVQPVV [K24V]	2.92

Variant	protein stability index
DKELLCCSCQADPRHQGHRVQPVG [K24G]	3.63
DKELLCCSCQADPRHQGHRVQPVF [K24F]	3.79
DKELLCCSCQADPRHQGHRVQPVM [K24M]	3.29
DKELLCCSCQADPRHQGHRVQPVH [K24H]	3.38
DKELLCCSCQADPRHQGHRVQPVA [K24A]	2.87
DKELLCCSCQADPRHQGHRVQEVK [P22E]	4.53
DKELLCCSCQADPRHQGHRVQNVK [P22N]	3.05
DKELLCCSCQADPRHQGHRVQMVK [P22M]	2.73
DKELLCCSCQADPRHQGHRVQHVK [P22H]	3.31
DKELLCCSCQADPRHQGHRVQSVK [P22S]	3.08
DKELLCCSCQADPRHQGHRVQTVK [P22T]	4.03
DKELLCCSCQADPRHQGHRVQQVK [P22Q]	4.04
DKELLCCSCQADPRHQGHRVQDVK [P22D]	4.11
DKELLCCSCQADPRHQGHRVQVVK [P22V]	2.68
DKELLCCSCQADPRHQGHRVQRVK [P22R]	3.4
DKELLCCSCQADPRHQGHRVQFVK [P22F]	3.44
DKELLCCSCQADPRHQGHRVQYVK [P22Y]	2.92
DKELLCCSCQADPRHQGHRVQCVK [P22C]	4.52
DKELLCCSCQADPRHQGHRVQIVK [P22I]	3.04
DKELLCCSCQADPRHQGHRVQLVK [P22L]	2.84
DKELLCCSCQADPRHQGHRVQAVK [P22A]	3.97
DKELLCCSCQADPRHQGHRVQKVK [P22K]	4.08
DKELLCCSCQADPRHQGHRVQPTK [V23T]	3.4
DKELLCCSCQADPRHQGHRVQPAK [V23A]	3.88
DKELLCCSCQADPRHQGHRVQPEK [V23E]	3.92
DKELLCCSCQADPRHQGHRVQPMK [V23M]	3.05

Variant	protein stability index
DKELLCCSCQADPRHQGHRVQPLK [V23L]	4.02
DKELLCCSCQADPRHQGHRVQPFK [V23F]	3.07
DKELLCCSCQADPRHQGHRVQPKK [V23K]	4.55
DKELLCCSCQADPRHQGHRVQPCK [V23C]	4
DKELLCCSCQADPRHQGHRVQPQK [V23Q]	4.13
DKELLCCSCQADPRHQGHRVQPIK [V23I]	4.25
DKELLCCSCQADPRHQGHRVQPPK [V23P]	4.06
DKELLCCSCQADPRHQGHRVQPDK [V23D]	4.19
DKELLCCSCQADPRHQGHRVQPGK [V23G]	3.87
DKELLCCSCQADPRHQGHRVQPSK [V23S]	3.36
DKELLCCSCQADPRHQGHRVQPYK [V23Y]	2.96
DKELLCCSCQADPRHQGHRVQPHK [V23H]	3.23
DKELLCCSCQADPRHQGHRVQPNK [V23N]	3.8
DKELLCCSCQADPRHQGHRVQPWK [V23W]	2.19
DKELLCCSCQADPRHQGHRDQPVK [V20D]	4.14
DKELLCCSCQADPRHQGHRRQPVK [V20R]	3.5
DKELLCCSCQADPRHQGHRSQPVK [V20S]	3.71
DKELLCCSCQADPRHQGHRKQPVK [V20K]	3.5
DKELLCCSCQADPRHQGHRYQPVK [V20Y]	3.04
DKELLCCSCQADPRHQGHRPQPVK [V20P]	4.54
DKELLCCSCQADPRHQGHRHQPVK [V20H]	4.69
DKELLCCSCQADPRHQGHRIQPVK [V20I]	3.44
DKELLCCSCQADPRHQGHRWQPVK [V20W]	2.76
DKELLCCSCQADPRHQGHRFQPVK [V20F]	3.48
DKELLCCSCQADPRHQGHRCQPVK [V20C]	4.46
DKELLCCSCQADPRHQGHRNQPVK [V20N]	4.13

Variant	protein stability index
DKELLCCSCQADPRHQGHRGQPVK [V20G]	4.15
DKELLCCSCQADPRHQGHRLQPVK [V20L]	3.91
DKELLCCSCQADPRHQGHRQQPVK [V20Q]	4.11
DKELLCCSCQADPRHQGHRAQPVK [V20A]	3.13
DKELLCCSCQADPRHQGHRTQPVK [V20T]	3.5
DKELLCCSCQADPRHQGHREQPVK [V20E]	4.04
DKELLCCSCQADPRHQGHRVFPVK [Q21F]	2.79
DKELLCCSCQADPRHQGHRVRPVK [Q21R]	3.71
DKELLCCSCQADPRHQGHRVPPVK [Q21P]	3.56
DKELLCCSCQADPRHQGHRVCPVK [Q21C]	3.92
DKELLCCSCQADPRHQGHRVHPVK [Q21H]	3.61
DKELLCCSCQADPRHQGHRVNPVK [Q21N]	4
DKELLCCSCQADPRHQGHRVKPVK [Q21K]	3.74
DKELLCCSCQADPRHQGHRVDPVK [Q21D]	4.05
DKELLCCSCQADPRHQGHRVAPVK [Q21A]	3.79
DKELLCCSCQADPRHQGHRVMPVK [Q21M]	3.68
DKELLCCSCQADPRHQGHRVGPVK [Q21G]	3.28
DKELLCCSCQADPRHQGHRVYPVK [Q21Y]	2.91
DKELLCCSCQADPRHQGHRVWPVK [Q21W]	2.52
DKELLCCSCQADPRHQGHRVEPVK [Q21E]	4.26
DKELLCCSCQADPRHQGHRVLPVK [Q21L]	3.15
DKELLCCSCQADPRHQGHRVSPVK [Q21S]	3.96
DKELLCCSCQADPRHQGHRVTPVK [Q21T]	1.96
DKELLCCSCQADPRHQGHRVIPVK [Q21I]	2.65
